Read-outs that look alike come from different tables or passages of the source.

As a reminder, the Kd is the equilibrium constant for the complex coming apart. As usually defined, the koff is the rate constant with which the complex falls apart. By kon is commonly meant the rate constant with which the complex forms.

For experiment [1], the target named is T1, Human recombinant Insulin (human, UniProt P01308 25-54; P01308 90-110, limits assumed).
T1 construct: also called bInsulin
In words: SPR Biacore T200, target on CM5 chip, ADAPT injected, 1:1 fit. The protocol:
(§1) Sensor-based binding analysis was performed using a Biacore T200 system (GE Healthcare, Stockholm, Sweden). All analyses were conducted using CM-5 sensor chips coated with the target antigen, another irrelevant antigen and HSA. One surface was left as reference. Binding analysis was performed in PBS-T at 25° C. The ADAPT variants were diluted in PBS-T to 500 nM, 250 nM, 125 nM, 62.5 nM and 31.25 nM. The samples were injected at a flow rate of 30 ul/min for 120 s followed by injection of PBS-T for 240 s to monitor the dissociation. Surfaces were regenerated with 10 mM HCl. Kinetic parameters were determined using the Biacore Insight Evaluation software, assuming a 1:1 binding.
(In general: SPR reads the build-up and loss of mass on a sensor chip optically.)

For experiment [2], the target named is T2, Human Serum Albumin (human, UniProt P02768 25-609).
T2 construct: also called HSA
T2 sequence (P02768 25-609 limits assumed): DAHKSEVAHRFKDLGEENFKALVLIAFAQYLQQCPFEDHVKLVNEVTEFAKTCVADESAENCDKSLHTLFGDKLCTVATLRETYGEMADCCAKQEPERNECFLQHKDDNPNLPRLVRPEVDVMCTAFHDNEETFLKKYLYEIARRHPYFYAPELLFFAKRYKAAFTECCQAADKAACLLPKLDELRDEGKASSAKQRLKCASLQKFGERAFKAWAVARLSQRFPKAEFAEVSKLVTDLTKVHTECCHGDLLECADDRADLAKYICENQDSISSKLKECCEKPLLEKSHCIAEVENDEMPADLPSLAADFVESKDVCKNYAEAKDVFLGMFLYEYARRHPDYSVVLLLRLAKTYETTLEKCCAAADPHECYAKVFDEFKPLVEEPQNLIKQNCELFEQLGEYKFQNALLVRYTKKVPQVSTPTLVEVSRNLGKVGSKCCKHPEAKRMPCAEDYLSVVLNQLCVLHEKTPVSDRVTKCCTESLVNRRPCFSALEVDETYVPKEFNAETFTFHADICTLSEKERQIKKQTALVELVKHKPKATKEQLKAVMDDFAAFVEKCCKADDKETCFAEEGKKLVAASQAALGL
In words: SPR Biacore T200, HSA on CM5 chip, ADAPT injected, 1:1 fit. The protocol: as §1

For experiment [3], the target named is T1, Human recombinant Insulin. In words: SPR Biacore T200, target on CM5 chip, ADAPT injected, 1:1 fit. The protocol:
as §1
(§2) Variants with sufficient alpha helical structure as well as monomeric elution profiles on the SEC column were further analyzed for binding towards their target protein as well as to HSA. The binding towards the target antigen used in the selection was measured by a multi-cycle analysis using SPR, showing that several binders had affinities in the μM-pM range. […] After target binding had been established, the variants were also evaluated for their ability to simultaneously bind to HSA. This was done either through an SPR capture assay or an experiment where the ADAPT was pre-incubated with saturating conditions of HSA before the binding towards the target was analyzed. […] In total, thirteen of the characterized binders from the selections towards TNFα, PSA, ANG, MYDGF and Insulin could bind both HSA and its target antigen simultaneously. FIG. 5 contains sensorgrams for the thirteen variants in the capture assay.
This is another data set of the same source.

For experiment [4], the target named is T2, Human Serum Albumin. In words: SPR Biacore T200, HSA on CM5 chip, ADAPT injected, 1:1 fit. The protocol:
as §1
This is another data set of the same source.

Experiment [5] has as its target T3, tumor necrosis factor alpha (human (produced in the Human Secretome …, UniProt P01375 77-233, limits assumed)).
T3 construct: also called TNFα; bTNFα
In words: SPR Biacore T200, target on CM5 chip, ADAPT injected, 1:1 fit. The protocol: as §1

The target of experiment [6] is T3, tumor necrosis factor alpha. The experiment is described as above. The protocol:
as §1, §2
The source holds these as a separate data set.

Experiment [7] addresses T4, renin (human (produced in the Human Secretome …, UniProt P00797 24-406, limits assumed)).
T4 construct: also called bREN
T4 sequence (looked up): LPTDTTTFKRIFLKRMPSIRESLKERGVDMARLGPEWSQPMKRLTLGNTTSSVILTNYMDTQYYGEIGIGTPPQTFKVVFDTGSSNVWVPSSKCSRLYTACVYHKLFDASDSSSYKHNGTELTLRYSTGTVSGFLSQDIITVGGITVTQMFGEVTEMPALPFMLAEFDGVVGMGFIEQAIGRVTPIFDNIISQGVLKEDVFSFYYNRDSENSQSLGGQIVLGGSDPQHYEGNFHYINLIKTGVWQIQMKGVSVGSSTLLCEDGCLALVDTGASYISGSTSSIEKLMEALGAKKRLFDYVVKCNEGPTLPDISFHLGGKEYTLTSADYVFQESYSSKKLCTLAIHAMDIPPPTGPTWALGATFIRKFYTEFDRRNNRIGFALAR
The experiment is described as above. The protocol:
as §1

In experiment [8] the target is T4, renin. The experiment is described as above. The protocol:
as §1, §2
This is another data set of the same source.

The target of experiment [9] is T5, C-reactive protein (human (produced in the Human Secretome …, UniProt P02741 19-224)).
T5 construct: also called CRP; bCRP
T5 sequence (looked up): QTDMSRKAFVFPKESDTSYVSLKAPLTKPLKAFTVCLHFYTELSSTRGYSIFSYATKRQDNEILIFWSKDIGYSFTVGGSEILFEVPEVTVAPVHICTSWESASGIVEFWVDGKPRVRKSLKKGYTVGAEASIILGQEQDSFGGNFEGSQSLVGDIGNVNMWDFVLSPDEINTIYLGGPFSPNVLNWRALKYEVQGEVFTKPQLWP
The experiment is described as above. The protocol: as §1

Experiment [10] deals with T5, C-reactive protein. The description is as above. The protocol:
as §1, §2
The source holds these as a separate data set.

Experiment [11] concerns the target T6, Prostate Specific Antigen (human (produced in the Human Secretome …, UniProt P07288 18-261, limits assumed)).
T6 construct: also called PSA; bPSA
The experiment is described as above. The protocol: as §1

For experiment [12], the target named is T6, Prostate Specific Antigen. Described as above. The protocol:
as §1, §2
This is another data set of the same source.

A further experiment has as its target T7, angiogenin (human (produced in the Human Secretome …, UniProt P03950 25-147)).
T7 construct: also called bANG
The description is as above. The protocol:
as §1

T6 sequence (P07288 18-261 limits assumed): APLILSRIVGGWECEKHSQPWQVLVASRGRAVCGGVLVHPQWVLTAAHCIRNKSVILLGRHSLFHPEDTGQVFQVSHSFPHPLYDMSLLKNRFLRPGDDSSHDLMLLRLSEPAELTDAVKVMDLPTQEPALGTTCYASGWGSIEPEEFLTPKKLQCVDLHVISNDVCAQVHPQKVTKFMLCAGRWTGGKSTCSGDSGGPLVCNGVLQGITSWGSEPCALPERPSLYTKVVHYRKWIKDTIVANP
T3 sequence (P01375 77-233 limits assumed): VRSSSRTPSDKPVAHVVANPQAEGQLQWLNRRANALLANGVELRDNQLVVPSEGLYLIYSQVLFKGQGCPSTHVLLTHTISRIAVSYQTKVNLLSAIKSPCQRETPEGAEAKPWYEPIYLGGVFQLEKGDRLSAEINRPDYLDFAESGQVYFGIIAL
T7 sequence (P03950 25-147 limits assumed): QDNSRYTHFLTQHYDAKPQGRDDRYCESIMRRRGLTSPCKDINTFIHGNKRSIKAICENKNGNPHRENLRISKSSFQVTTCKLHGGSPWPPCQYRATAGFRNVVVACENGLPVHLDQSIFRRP
T1 sequence (P01308 25-54 limits assumed, chain 1 of 2): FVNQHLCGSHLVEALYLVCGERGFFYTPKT
T1 sequence (P01308 90-110 limits assumed, chain 2 of 2): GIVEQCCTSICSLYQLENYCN

B1: ADAPT variant Insulin_01 (designed binder)
chain: LVIAKAYAQYELAFYGVSDFYSDLIKKAKTVEGVEALKLHILAALP
notes: also called INS_01
Consider B1, for which the Kd worked out at 950 nM in experiment [1], 3.9 nM with Human Serum Albumin [2], 950 nM in experiment [3] and 3.9 nM in the experiment with Human Serum Albumin [4]. Moreover, the koff in experiment [1] is 0.22 s⁻¹; with Human Serum Albumin [2] it was 0.0014 s⁻¹. Also, the values for the kon (in [1]; with Human Serum Albumin [2]) were 240000 M⁻¹ s⁻¹ and 360000 M⁻¹ s⁻¹, respectively.

B2: ADAPT variant TNFα_09 (designed binder)
chain: LIWAKASAVRELHRYGVSDFYYELIVKAKTVEGVEALKLHILAALP
As for B2, the Kd in experiment [5] was determined as 3.6 nM; in the experiment with Human Serum Albumin [2], 9.5 nM; in [6], 3.6 nM; in the experiment with Human Serum Albumin [4] it was 9.5 nM. The koff in [5] is 0.0032 s⁻¹; with Human Serum Albumin [2] it was 0.00034 s⁻¹. Besides, the kon in experiment [5] is 890000 M⁻¹ s⁻¹; with Human Serum Albumin [2], 36000 M⁻¹ s⁻¹.

B3: ADAPT variant REN_40 (designed binder)
chain: LMWAKAEAAIELVDYGVSDFYQYLISKAKTVEGVEALKLHILAALP
In the case of B3, the Kd with renin [7] was determined as 410 nM; with Human Serum Albumin [2], 5.5 nM; in the experiment with renin [8], 410 nM; in the experiment with Human Serum Albumin [4], 5.5 nM. Moreover, the koff stood at 0.0035 s⁻¹ with renin [7] and 0.00064 s⁻¹ in the experiment with Human Serum Albumin [2]. The figures for the kon with renin [7] and in the experiment with Human Serum Albumin [2] were 8700 M⁻¹ s⁻¹ and 120000 M⁻¹ s⁻¹, respectively.

B4: ADAPT variant TNFα_05 (designed binder)
chain: LIWAKAEAVQELFMYGVSDFYYDLIIKAKTVEGVEALKLHILAALP
notes: Single domain of about 6 kDa, made in E. coli, purified on HSA resin
As to B4, the Kd in experiment [5] worked out at 2.5 nM; in the experiment with Human Serum Albumin [2] it was 18 nM; in experiment [6], 2.5 nM; with Human Serum Albumin [4], 18 nM. Besides, the koff came to 0.0037 s⁻¹ in [5] and 0.00039 s⁻¹ with Human Serum Albumin [2]. Moreover, the kon in experiment [5] is 1.5e+06 M⁻¹ s⁻¹; in the experiment with Human Serum Albumin [2] it was 21000 M⁻¹ s⁻¹.

B5: ADAPT variant CRP_38 (designed binder)
chain: LKVAKIIAFHELWEYGVSDFYLSLIDKAKTVEGVEALKLHILAALP
In the case of B5, the Kd with C-reactive protein [9] is 52 nM; with Human Serum Albumin [2], 13 nM; with C-reactive protein [10], 52 nM; in the experiment with Human Serum Albumin [4] it was 13 nM. Besides, the koff stood at 0.0017 s⁻¹ with C-reactive protein [9] and 0.0054 s⁻¹ with Human Serum Albumin [2]. Further, the kon in the experiment with C-reactive protein [9] is 33000 M⁻¹ s⁻¹; in the experiment with Human Serum Albumin [2], 410000 M⁻¹ s⁻¹.

B6: ADAPT variant CRP_48 (designed binder)
chain: LHYAKIMAFHELWQYGVSDFYLQLIDKAKTVEGVEALKLHILAALP
Consider B6, for which the Kd came out at 62 nM with C-reactive protein [9], 15 nM with Human Serum Albumin [2], 62 nM with C-reactive protein [10] and 15 nM with Human Serum Albumin [4]. Also, the figures for the koff with C-reactive protein [9] and in the experiment with Human Serum Albumin [2] were 0.0012 s⁻¹ and 0.0042 s⁻¹, respectively. The kon with C-reactive protein [9] was 19000 M⁻¹ s⁻¹; with Human Serum Albumin [2] it was 280000 M⁻¹ s⁻¹.

B7: ADAPT variant CRP_23 (designed binder)
chain: LSKAKAQAWHELYYYGVSDFYLSLIDKAKTVEGVEALKLHILAALP
With B7, the Kd was found to be 1900 nM with C-reactive protein [9], 23 nM in the experiment with Human Serum Albumin [2], 1900 nM with C-reactive protein [10] and 23 nM in the experiment with Human Serum Albumin [4]. Further, the koff was found to be 0.0017 s⁻¹ in the experiment with C-reactive protein [9] and 0.007 s⁻¹ with Human Serum Albumin [2]. Further, the results for the kon with C-reactive protein [9] and with Human Serum Albumin [2] were 890 M⁻¹ s⁻¹ and 300000 M⁻¹ s⁻¹, respectively.

B8: ADAPT variant PSA_05 (designed binder)
chain: LFRAKVWAVWELDQYGVSDFYDELIWKAKTVEGVEALKLHILAALP
In the case of B8, the Kd in [11] is 300 nM; in the experiment with Human Serum Albumin [2], 3.3 nM; in [12], 300 nM; with Human Serum Albumin [4], 3.3 nM. Further, the koff in experiment [11] stood at 0.059 s⁻¹; with Human Serum Albumin [2], 0.0003 s⁻¹. In addition, the kon in experiment [11] came to 200000 M⁻¹ s⁻¹; in the experiment with Human Serum Albumin [2] it was 92000 M⁻¹ s⁻¹.

B9: ADAPT variant PSA_01 (designed binder)
chain: LTVAKFWALTELQEYGVSDFYANLITKAKTVEGVEALKLHILAALP
On to B9, for which the Kd came to 280 nM in experiment [11], 1.1 nM in the experiment with Human Serum Albumin [2], 280 nM in [12] and 1.1 nM with Human Serum Albumin [4]. Moreover, the figures for the koff (in experiment [11]; with Human Serum Albumin [2]) were 0.1 s⁻¹ and 0.0012 s⁻¹, respectively. For the same molecule, the kon in [11] was 360000 M⁻¹ s⁻¹; in the experiment with Human Serum Albumin [2] it was 1.1e+06 M⁻¹ s⁻¹.

B10: ADAPT variant ANG_16 (designed binder)
chain: LYVAKDNADWELWQYGVSDFYRSLIWKAKTVEGVEALKLHILAALP
B10: in the experiment with angiogenin, binding was put at a Kd of 5.1 nM, the koff came to 0.0005 s⁻¹ and the kon was found to be 99000 M⁻¹ s⁻¹. In the experiment with Human Serum Albumin [2], this molecule gave a Kd of 1 nM, a koff of 3e-05 s⁻¹ and a kon of 29000 M⁻¹ s⁻¹. In the experiment with Human Serum Albumin [4], this molecule had a Kd of 1 nM.

B11: ADAPT variant ANG_02 (designed binder)
chain: LYWAKDYADYELWQYGVSDFYRSLIWKAKTVEGVEALKLHILAALP
notes: also called ANG_2
As for B11, in the experiment with angiogenin, the Kd turned out to be 14 nM, the koff is 0.0007 s⁻¹ and the kon was 52000 M⁻¹ s⁻¹. In the experiment with Human Serum Albumin [2], this molecule displayed a Kd of 2 nM, a koff of 4.5e-05 s⁻¹ and a kon of 23000 M⁻¹ s⁻¹. For the same molecule, in the experiment with Human Serum Albumin [4], the Kd was 2 nM.

B12: ADAPT variant Insulin_03 (designed binder)
chain: LAVAKAYAKYELAFYGVSDFYNELILKAKTVEGVEALKLHILAALP
notes: also called INS_03
As for B12, the Kd was determined as 1300 nM in experiment [1], 3.1 nM in the experiment with Human Serum Albumin [2], 1300 nM in experiment [3] and 3.1 nM with Human Serum Albumin [4]. The koff in [1] is 0.22 s⁻¹; with Human Serum Albumin [2], 0.0014 s⁻¹. The kon in experiment [1] was found to be 180000 M⁻¹ s⁻¹; with Human Serum Albumin [2], 460000 M⁻¹ s⁻¹.

B13: ADAPT variant REN_01 (designed binder)
chain: LYHAKWMASLELAKYGVSDFYWNLISKAKTVEGVEALKLHILAALP
With B13, the Kd is 76 nM in the experiment with renin [7], 23 nM with Human Serum Albumin [2], 76 nM with renin [8] and 23 nM in the experiment with Human Serum Albumin [4]. Also, the figures for the koff with renin [7] and with Human Serum Albumin [2] were 0.0024 s⁻¹ and 0.00027 s⁻¹, respectively. Besides, the results for the kon with renin [7] and with Human Serum Albumin [2] were 32000 M⁻¹ s⁻¹ and 12000 M⁻¹ s⁻¹, respectively.

B14: ADAPT variant CRP_09 (designed binder)
chain: LRVAKSMAWHELWSYGVSDFYLRLIDKAKTVEGVEALKLHILAALP
Consider B14, for which the Kd with C-reactive protein [9] was 1100 nM; with Human Serum Albumin [2], 7.7 nM; with C-reactive protein [10] it was 1100 nM; with Human Serum Albumin [4], 7.7 nM. In addition, the koff with C-reactive protein [9] came out at 0.0013 s⁻¹; with Human Serum Albumin [2] it was 0.0038 s⁻¹. Moreover, the results for the kon with C-reactive protein [9] and with Human Serum Albumin [2] were 1200 M⁻¹ s⁻¹ and 490000 M⁻¹ s⁻¹, respectively.

Source of the values: patent US20230250160A1 (HOBER BIOTECH, published 2023).
